Here are results for 25 molecules from patent US20200230168, “NUCLEIC ACID OLIGOMERS AND USES THEREFOR” (Queensland University of Technology, published 2020).

B1: In3E3 5' truncation 16 nt (ssRNA)
RNA: UGAGCCGGACUUGCCU
modifications: 2'-OMe all, PS all
B2: In3E3 3' truncation 15 nt (ssRNA)
RNA: CCAGUGAGCCGGACU
modifications: 2'-OMe all, PS all
B3: Neg_C 2'-OMe PD (DKLS341370) (ssRNA)
RNA: CUCAUUCCUACCGACACCCC
modifications: 2'-OMe all, phosphodiester
B4: In3E3 3' truncation 19 nt (ssRNA)
RNA: CCAGUGAGCCGGACUUGCC
modifications: 2'-OMe all, PS all
B5: In3E3 3' truncation 18 nt (ssRNA)
RNA: CCAGUGAGCCGGACUUGC
modifications: 2'-OMe all, PS all
B6: In3E3 both-end truncation 14 nt (ssRNA)
RNA: GUGAGCCGGACUUG
modifications: 2'-OMe all, PS all
B7: In3E3 3' truncation 8 nt (ssRNA)
RNA: CCAGUGAG
modifications: 2'-OMe all, PS all [2'-OMe at 1-8 (all); PS at all linkages]
B8: In3E3 PS only (DKLS426690) (ssRNA)
RNA: CCAGUGAGCCGGACUUGCCU
modifications: PS all, no sugar modification
B9: In3E3 5' truncation 15 nt (ssRNA)
RNA: GAGCCGGACUUGCCU
modifications: 2'-OMe all, PS all
B10: In3E3 both-end truncation 18 nt (ssRNA)
RNA: CAGUGAGCCGGACUUGCC
modifications: 2'-OMe all, PS all
B11: In3E3 3' truncation 14 nt (ssRNA)
RNA: CCAGUGAGCCGGAC
modifications: 2'-OMe all, PS all
B12: In3LSA_scr3_4 (ssRNA)
RNA: CCGGUGAGCGACACUAGGCU
modifications: 2'-OMe all, PS all
B13: In3E3 3' truncation 13 nt (ssRNA)
RNA: CCAGUGAGCCGGA
modifications: 2'-OMe all, PS all
B14: LSA_ATG PS only (DKLS577569) (ssRNA)
RNA: CAGAGGCAGCAGUACGACGG
modifications: PS all, no sugar modification
B15: In3E3 5' truncation 14 nt (ssRNA)
RNA: AGCCGGACUUGCCU
modifications: 2'-OMe all, PS all
B16: LSA_ATG (ssRNA)
RNA: CAGAGGCAGCAGUACGACGG
modifications: 2'-OMe all, PS all
B17: LSA_ATG 30-mer (DKLS428543) (ssRNA)
RNA: CAGAGGCAGCAGUACGACGGCAGAGGCAGC
modifications: 2'-OMe all, PS all
B18: In3E3 3' truncation 10 nt (ssRNA)
RNA: CCAGUGAGCC
modifications: 2'-OMe all, PS all
B19: RevIn3LSA (DKLS481254) (ssRNA)
RNA: AGGCAAGUCCGGCUCACUGG
modifications: 2'-OMe all, PS all
B20: Open_A PS only (DKLS669778) (ssRNA)
RNA: GUGCAUGGAAUCACGGAGUG
modifications: PS all, no sugar modification
B21: Neg_C ZEN (DKLS789189) (ssRNA)
RNA: CUCAUUCCUACCGACACCCC
modifications: 2'-OMe all, phosphodiester, ZEN at both ends
B22: In3LSA_scr3_5 (ssRNA)
RNA: CCAGACAGCUGGUGUCGCCU
modifications: 2'-OMe all, PS all
B23: LSA_ATG 2'-OMe PS ends (DKLS286198) (ssRNA)
RNA: CAGAGGCAGCAGUACGACGG
modifications: 2'-OMe all, PS three at each end
B24: In3E3 2'-OMe PS ends (DKLS621499) (ssRNA)
RNA: CCAGUGAGCCGGACUUGCCU
modifications: 2'-OMe all, PS three at each end
B25: In3E3 ZEN (DKLS991101) (ssRNA)
RNA: CCAGUGAGCCGGACUUGCCU
modifications: 2'-OMe all, phosphodiester, ZEN at both ends

In one series the target is THOC4 (ALYREF) (UniProt Q86V81 Q86V81:2-257). The series is described as follows: SPR; LSA_In3E3 = 1. Background: In SPR one partner is held on a chip, and binding of the other changes the refractive index at the surface.
With B1, the binding signal stood at 0.24 normalized Rmax. As to B2, the binding signal was -0.09 normalized Rmax. B3 came in with a binding signal of 0.08 normalized Rmax. B4 gave a binding signal of 0.9 normalized Rmax. The same measure, in the same setting: under B5 stands 0.87 normalized Rmax. In the case of B6, the binding signal turned out to be 0.48 normalized Rmax.

Turning to B7, the binding signal is -0.05 normalized Rmax. The same measure, in the same setting: under B8 stands 1.06 normalized Rmax. B9 yielded a binding signal of 0.45 normalized Rmax. B10 showed a binding signal of 0.96 normalized Rmax.

For the molecule B11, the binding signal was 0.08 normalized Rmax. Consider B12, for which the binding signal was determined as 0.66 normalized Rmax. Regarding B13, the binding signal worked out at 0.08 normalized Rmax. Still for that read-out and setting: under B14 stands 1.03 normalized Rmax. As to B15, the binding signal came out at 0.09 normalized Rmax. Regarding B16, the binding signal was found to be 0.96 normalized Rmax. Same read-out and setting: under B17 stands 1.21 normalized Rmax; under B18, -0.01 normalized Rmax. Consider B19, for which the binding signal stood at 0.76 normalized Rmax.

In turn, B20 showed a binding signal of 0.76 normalized Rmax. Still for that read-out and setting: under B21 stands 0.03 normalized Rmax; under B22, 0.43 normalized Rmax.

In the next series the target is hSSB1 (Homo sapiens, UniProt Q9BQ15 Q9BQ15:1-211). The series is described as follows: SPR; LSA_In3E3 = 1.
Chain of hSSB1 (Q9BQ15 whole entry, one chain of several): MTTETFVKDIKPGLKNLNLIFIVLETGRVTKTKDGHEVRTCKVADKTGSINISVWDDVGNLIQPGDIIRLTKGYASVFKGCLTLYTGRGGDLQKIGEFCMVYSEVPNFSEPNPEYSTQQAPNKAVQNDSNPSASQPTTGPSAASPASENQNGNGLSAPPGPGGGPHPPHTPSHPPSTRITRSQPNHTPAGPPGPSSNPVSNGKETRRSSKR
B1: the binding signal stood at 0.48 normalized Rmax. For B2, the binding signal came out at 0.36 normalized Rmax. Regarding B3, the binding signal was found to be 0.37 normalized Rmax. On to B4, for which the binding signal turned out to be 0.68 normalized Rmax.

In turn, B5 gave a binding signal of 0.67 normalized Rmax. For the molecule B6, the binding signal was found to be 0.45 normalized Rmax. The same measure, in the same setting: under B7 stands 0.09 normalized Rmax; under B8, 0.99 normalized Rmax; under B9, 0.4 normalized Rmax. B10 gave a binding signal of 0.91 normalized Rmax. Molecule B23 registered a binding signal of 0.17 normalized Rmax. With B11, the binding signal was 0.35 normalized Rmax.

As for B12, the binding signal is 0.77 normalized Rmax. In turn, B13 had a binding signal of 0.53 normalized Rmax. B24: the binding signal was 0.12 normalized Rmax. Molecule B14 returned a binding signal of 1.44 normalized Rmax. B15: the binding signal was determined as 0.3 normalized Rmax. In turn, B16 gave a binding signal of 1.1 normalized Rmax. For B17, the binding signal turned out to be 1.89 normalized Rmax. Same read-out and setting: the value for B18 was 0.11 normalized Rmax. Molecule B25 came in with a binding signal of 0.17 normalized Rmax.

B19 returned a binding signal of 0.82 normalized Rmax. On the same count and under the same terms, under B20 stands 1.3 normalized Rmax. Take B21: the binding signal was 0.09 normalized Rmax.

On to B22, for which the binding signal was 0.75 normalized Rmax.
